The term IC50 denotes the midpoint of a concentration-inhibition curve. Low readings indicate inhibition by little substance, high ones a need for much substance. A word on the Kd: it is a measure of binding affinity in units of concentration. High values mean weaker binding, low ones tighter binding.

Data on 9 molecules can be found in patent US9073974B2, “RGD-containing cyclic peptides” (The Regents of the University of California, priority 2009, dated 2015).

Assay [1] deals with T1, αvβ3 integrin (human, UniProt P06756 31-1048; P05106 27-788).
T1 construct: whole, on cells; Same entry used for αvβ3-K562, U-87 MG and A375M cells; also called αvβ3-K562; αvβ3 transfected K562 cells
The assay is described as follows: flow cytometry, competition with FITC-Echistatin on αvβ3-K562 cells; +++ = IC50 <1 µM.

In assay [2] the target is T1, αvβ3 integrin. As to the kind of experiment: flow cytometry, saturation binding of LXW7-Bio on αvβ3-K562 cells. A general note: In flow cytometry, cells or beads pass a laser one at a time.
Assay [3] deals with T1, αvβ3 integrin. As to the kind of experiment: flow cytometry, saturation binding of LXW7-Bio on αvβ3-K562 cells, streptavidin-PE, nonspecific binding with 100 µM LXW7 subtracted.
Assay [4] concerns the target T1, αvβ3 integrin. The assay is described as follows: flow cytometry, saturation binding of LXW7-Bio on A375M cells.
In assay [5] the target is T1, αvβ3 integrin. As to the kind of experiment: flow cytometry, saturation binding of LXW7-Bio on U-87 MG cells, streptavidin-PE, nonspecific binding with 100 µM LXW7 subtracted.
Assay [6] deals with T1, αvβ3 integrin. The assay is described as follows: flow cytometry, saturation binding of LXW7-Bio on A375M cells, streptavidin-PE, nonspecific binding with 100 µM LXW7 subtracted.
Assay [7] has as its target T1, αvβ3 integrin. As to the kind of experiment: flow cytometry, competition with FITC-Echistatin on αvβ3-K562 cells.
For assay [8], the target named is T1, αvβ3 integrin. The assay is described as follows: flow cytometry, saturation binding of LXW7-Bio on U-87 MG cells.
In assay [9] the target is T1, αvβ3 integrin. As to the kind of experiment: flow cytometry, competition with FITC-Echistatin on αvβ3-K562 cells; ++ = IC50 1-10 µM.
For assay [10], the target named is T1, αvβ3 integrin. The assay is described as follows: flow cytometry, competition with FITC-Echistatin on αvβ3-K562 cells. This is another data set of the same source.
Assay [11] addresses T1, αvβ3 integrin. The description is as above. The source holds these as a separate data set.
For assay [12], the target named is T1, αvβ3 integrin. As to the kind of experiment: flow cytometry, competition with biotinylated LXW7 on αvβ3-K562 cells (internal reference).
Assay [13] has as its target T2, αvβ3 integrin (human), P06756.
T2 chain 1: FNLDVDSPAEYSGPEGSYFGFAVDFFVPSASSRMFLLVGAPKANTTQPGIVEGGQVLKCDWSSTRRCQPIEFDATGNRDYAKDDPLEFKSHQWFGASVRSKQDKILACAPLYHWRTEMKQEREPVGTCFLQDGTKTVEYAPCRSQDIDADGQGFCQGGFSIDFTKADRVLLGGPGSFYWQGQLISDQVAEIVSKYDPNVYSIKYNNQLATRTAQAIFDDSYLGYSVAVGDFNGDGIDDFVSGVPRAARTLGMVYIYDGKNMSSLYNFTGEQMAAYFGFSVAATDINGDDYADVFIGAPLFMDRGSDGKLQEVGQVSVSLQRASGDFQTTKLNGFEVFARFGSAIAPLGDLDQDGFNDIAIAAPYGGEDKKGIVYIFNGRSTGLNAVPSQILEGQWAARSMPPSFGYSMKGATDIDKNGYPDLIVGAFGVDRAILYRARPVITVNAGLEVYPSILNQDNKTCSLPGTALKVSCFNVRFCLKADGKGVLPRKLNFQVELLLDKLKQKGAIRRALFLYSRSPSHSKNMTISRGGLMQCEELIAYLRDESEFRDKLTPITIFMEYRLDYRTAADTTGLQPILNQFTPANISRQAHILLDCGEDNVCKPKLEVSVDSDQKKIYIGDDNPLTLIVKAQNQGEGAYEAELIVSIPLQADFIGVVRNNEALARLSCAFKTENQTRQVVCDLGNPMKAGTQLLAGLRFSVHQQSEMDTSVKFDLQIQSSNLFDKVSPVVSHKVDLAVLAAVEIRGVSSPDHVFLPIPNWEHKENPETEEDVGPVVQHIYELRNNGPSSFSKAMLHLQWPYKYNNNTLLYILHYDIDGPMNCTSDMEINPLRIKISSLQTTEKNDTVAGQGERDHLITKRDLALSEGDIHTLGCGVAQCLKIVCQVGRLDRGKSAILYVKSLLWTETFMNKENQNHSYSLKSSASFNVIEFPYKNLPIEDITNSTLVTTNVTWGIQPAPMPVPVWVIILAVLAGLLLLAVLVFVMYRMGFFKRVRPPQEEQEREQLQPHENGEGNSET
T2 chain 2: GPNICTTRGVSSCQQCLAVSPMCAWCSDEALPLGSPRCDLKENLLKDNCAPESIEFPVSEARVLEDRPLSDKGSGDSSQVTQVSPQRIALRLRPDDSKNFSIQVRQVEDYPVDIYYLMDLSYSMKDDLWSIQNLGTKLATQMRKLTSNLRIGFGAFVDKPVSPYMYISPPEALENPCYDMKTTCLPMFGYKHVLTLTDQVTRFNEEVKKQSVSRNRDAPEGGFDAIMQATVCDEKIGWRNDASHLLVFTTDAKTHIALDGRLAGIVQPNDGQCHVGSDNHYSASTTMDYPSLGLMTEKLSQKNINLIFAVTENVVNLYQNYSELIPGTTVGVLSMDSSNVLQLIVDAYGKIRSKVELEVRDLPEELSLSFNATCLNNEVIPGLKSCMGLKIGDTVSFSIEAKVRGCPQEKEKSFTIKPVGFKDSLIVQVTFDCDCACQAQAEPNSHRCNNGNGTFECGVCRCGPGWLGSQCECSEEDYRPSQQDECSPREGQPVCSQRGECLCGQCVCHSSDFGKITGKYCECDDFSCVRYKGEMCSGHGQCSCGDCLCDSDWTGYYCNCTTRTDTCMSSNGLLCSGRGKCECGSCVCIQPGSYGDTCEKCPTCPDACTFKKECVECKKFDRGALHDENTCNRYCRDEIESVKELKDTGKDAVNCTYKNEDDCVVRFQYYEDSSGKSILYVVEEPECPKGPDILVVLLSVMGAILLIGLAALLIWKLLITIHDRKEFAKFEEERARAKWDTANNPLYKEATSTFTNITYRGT
As to the kind of experiment: flow cytometry, competition with FITC-Echistatin on αvβ3-K562 cells. As to conditions: remark: other sources report otherwise.

Numbered stars: 1 amine (or outer) side, 2 acyl side, 3 side chain; on linkers, the order of the positions; unused ones are H or OH. Bridge positions count the residues as written; N and C are the ends. Square brackets hold non-standard residues; d marks the D form. Primed or numbered codes have the meaning given here. Side chains are listed from the residue outwards. Ends that are not written are not given here. Ebes = 2,2'-ethylenedioxy bis(ethylamine) monosuccinamide; Suc = O=C(CCC(=O)[*:2])[*:1]; Ebes″ = not defined here

B1: LXW3 (peptide)
peptide: [dC]GRGD[dS][dE][dC]-NH2
modifications: disulfide 1-8; N-terminus assumed
SMILES: N=C(N)NCCC[C@@H]1NC(=O)CNC(=O)[C@H](N)CSSC[C@H](C(N)=O)NC(=O)[C@@H](CCC(=O)O)NC(=O)[C@@H](CO)NC(=O)[C@H](CC(=O)O)NC(=O)CNC1=O
B1 showed a concentration for half-maximal inhibition (IC50) with αvβ3 integrin [1] of less than 1000 nM.
As for [dC]GRGD[dD][dV][dC]-{Ebes-Ebes-K(biotin)-NH2} (disulfide 1-8) [Biotinylated cyclo(cGRGDdvc)], the Bmax worked out at 1390 A.U in the assay with αvβ3 integrin [2], 71 A.U in the assay with αvβ3 integrin [4] and 86 A.U with αvβ3 integrin [8]. Moreover, the Kd stood at 76 nM in the assay with αvβ3 integrin [3], 72 nM with αvβ3 integrin [5] and 89 nM with αvβ3 integrin [6]. Further, the IC50 with αvβ3 integrin [7] amounted to 620 nM.

B2: LXW2 (peptide)
peptide: [dC]GRGD[dD][dF][dC]-NH2
modifications: disulfide 1-8; N-terminus assumed
SMILES: N=C(N)NCCC[C@@H]1NC(=O)CNC(=O)[C@H](N)CSSC[C@H](C(N)=O)NC(=O)[C@@H](Cc2ccccc2)NC(=O)[C@@H](CC(=O)O)NC(=O)[C@H](CC(=O)O)NC(=O)CNC1=O
B2 gave a half-inhibitory concentration (IC50) with αvβ3 integrin [9] of 1000 to 10000 nM.
Molecule cyclo(RGD[dF]E([Ebes-Ebes-Lys(biotin) amide])) (also called Biotinylated Cyclo(RGDfE)) [cyclo (RGDfE)-Bio] came in with an IC50 in the assay with αvβ3 integrin [10] of 4700 nM. In addition, the “fold decrease in affinity on biotinylation (against the non-biotinylated form)” value in the assay with αvβ3 integrin [11] is 2 to 8 fold.

B3: cyclo(RGDfE) (peptide)
peptide: cyclo(RGD[dF]E)
SMILES: N=C(N)NCCC[C@@H]1NC(=O)[C@H](CCC(=O)O)NC(=O)[C@@H](Cc2ccccc2)NC(=O)[C@H](CC(=O)O)NC(=O)CNC1=O
Regarding B3, the 50% inhibitory concentration (IC50) with αvβ3 integrin [10] was determined as 600 nM.

B4: LXW7 (peptide)
peptide: [dC]GRGD[dD][dV][dC]-NH2
modifications: disulfide 1-8; N-terminus assumed
SMILES: CC(C)[C@H]1NC(=O)[C@@H](CC(=O)O)NC(=O)[C@H](CC(=O)O)NC(=O)CNC(=O)[C@H](CCCNC(=N)N)NC(=O)CNC(=O)[C@H](N)CSSC[C@H](C(N)=O)NC1=O
As to B4, the IC50 in the assay with αvβ3 integrin [1] was less than 1000 nM; with αvβ3 integrin [7], 680 nM; in the assay with αvβ3 integrin [12], 590 nM.

B5: LXW5 (peptide)
peptide: [dC]GRGD[dD][dS][dC]-NH2
modifications: disulfide 1-8; N-terminus assumed
SMILES: N=C(N)NCCC[C@@H]1NC(=O)CNC(=O)[C@H](N)CSSC[C@H](C(N)=O)NC(=O)[C@@H](CO)NC(=O)[C@@H](CC(=O)O)NC(=O)[C@H](CC(=O)O)NC(=O)CNC1=O
Turning to B5, the IC50 in the assay with αvβ3 integrin [9] fell in the range of 1000 to 10000 nM.

B6: LXW1 (peptide)
peptide: [dC]GRGD[dS][dF][dC]-NH2
modifications: disulfide 1-8; N-terminus assumed
SMILES: N=C(N)NCCC[C@@H]1NC(=O)CNC(=O)[C@H](N)CSSC[C@H](C(N)=O)NC(=O)[C@@H](Cc2ccccc2)NC(=O)[C@@H](CO)NC(=O)[C@H](CC(=O)O)NC(=O)CNC1=O
The molecule B6 had a half-inhibitory concentration (IC50) with αvβ3 integrin [9] of 1000 to 10000 nM.
With cyclo(RGD[dF]K([Suc-Ebes″-Lys(biotin)NH2])) (reading uncertain) [cyclo (RGDfK)-Bio], in [13], the 50% inhibitory concentration (IC50) amounted to 1370 nM.
